Source: patent publication US7348154B2, “IGF binding proteins” (Genentech, Inc., priority 2003, dated 2008)

What was measured:
[1] = target: T1, native-sequence human IGFBP-3 (Homo sapiens, UniProt P17936, A32G); test: BIAcore competition: bp15 versus immobilized biotinylated IGF-I and -II for binding to IGFBP-3; conditions: 15 nM to 100 µM bp15, 20 nM IGFBP-3, 1 hour at room temperature
T1 construct: “wild-type IGFBP-3,” and “full-length IGFBP-3” is wild-type human IGFBP-3; made in house; host or cells: E. coli BL21, vector pET21a
Description: A total of 15 nM to 100:M bp15 peptide and 20 nM native-sequence human IGFBP-3 were incubated for 1 hour at room temperature before injection over immobilized biotinylated native-sequence human IGF-I and -II.
Competition binding experiments were carried out as follows. 15 nM to 100:M bp15 peptide and 20 nM IGFBP-3 were incubated for 1 hour at room temperature before injection at 20:l/min in PBST over immobilized biotinylated IGF-I and -II. Equilibrium binding data was plotted in GraphPad Prism™ software and fit to a one-site competition-binding model.
(§1) Peptide bp15 ([…]) (SEQ ID NO:11) was identified by phage display (Lowman et al., Biochemistry, 1998, supra). […] Therefore, bp15 was tested to see if it would bind to the miniBP-3 fusion. Compare FIGS. 7 and 8 for competitive binding data for bp15 to IGFBP-3 and to the miniBP-3 fusion, respectively.

miniBP-3 fusion protein = target: T2, miniBP-3 fusion protein (Homo sapiens, UniProt P17936); test: BIAcore competition: bp15 versus immobilized biotinylated IGF-I for binding to miniBP-3 fusion protein; conditions: 1.17 to 300 µM bp15, 1 µM miniBP-3 fusion; exact affinity not determined due to lack of saturation
T2 construct: made in house; host or cells: E. coli BL21, vector pET21a; purified on IgG Sepharose
Description: as §1

[2] = target: native-sequence human IGF-I (Homo sapiens, UniProt P05019); test: BIAcore kinetic analysis of binding to IGF-I
[3] = target: native-sequence human IGF-II (Homo sapiens, UniProt P01344); test: BIAcore kinetic analysis of binding to IGF-II
[4] = IGF-I injected over immobilized wild-type IGFBP-3, 25° C., 1:1 Langmuir model
[5] = wild-type IGFBP-3, calculated as kd/ka
[6] = IGF-II injected over immobilized wild-type IGFBP-3, 25° C., 1:1 Langmuir model

Sequence of native-sequence human IGF-II (P01344 25-91 limits assumed): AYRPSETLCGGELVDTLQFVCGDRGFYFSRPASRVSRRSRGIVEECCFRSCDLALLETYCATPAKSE
Sequence of native-sequence human IGF-I (P05019 49-118 limits assumed): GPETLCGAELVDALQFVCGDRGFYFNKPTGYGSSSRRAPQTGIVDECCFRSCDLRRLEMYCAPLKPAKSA
T2 sequence (P17936 74-126, added parts left off): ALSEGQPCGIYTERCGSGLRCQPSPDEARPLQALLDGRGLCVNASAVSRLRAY
T1 sequence (P17936 28-291 A32G): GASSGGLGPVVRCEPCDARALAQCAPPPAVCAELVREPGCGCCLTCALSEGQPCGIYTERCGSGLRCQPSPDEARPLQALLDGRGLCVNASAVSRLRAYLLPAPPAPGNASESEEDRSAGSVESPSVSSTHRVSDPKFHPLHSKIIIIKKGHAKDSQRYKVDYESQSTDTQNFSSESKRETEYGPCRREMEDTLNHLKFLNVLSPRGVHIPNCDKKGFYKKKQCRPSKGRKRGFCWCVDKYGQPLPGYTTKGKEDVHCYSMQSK

Row | ka [2, 4] | kd [2, 4] | Kd [2, 5] [nM] | ka [3, 6] | kd [3, 6] | Kd [3, 5] [nM] | Substance | competition with IGF-I and -II for binding to IGFBP-3 [1] | binding to miniBP-3 fusion (miniBP-3 fusion protein)
1 |  |  |  |  |  |  | SEEVCWPVAEWYLCN (Sequence is synthesized) [bp15] | competes with IGF-I and -II for binding to IGFBP-3 | does bind to the miniBP-3 fusion, but with reduced affinity compared to wild-type IGFBP-3
2 | 715 ± 3.66 ×10^4 M^−1 s^−1 | 7.58 ± 0.07 ×10^−4 s^−1 | 0.11 ± 0.001 | 348 ± 1.02 ×10^4 M^−1 s^−1 | 4.07 ± 0.05 ×10^−4 s^−1 | 0.12 ± 0.001 | Wild-type IGFBP-3: wild-type human IGFBP-3 (SEQ ID NO:1 or 12), produced in E. coli and refolded |  | 
